From patent US20210277122A1 (SHANGHAI HENLIUS BIOTECH, published 2021)

B1: humanized anti-PD-1 antibody 1G4 (h1G4) (antibody, human IgG4 S228P, kappa, V domains shown)
VH: QVQLVESGGGLVKPGGSLRLSCAASGFTFSNYGMSWIRQAPGKGLEWVSTISGGGSNIYYADSVKGRFTISRDNAKNSLYLQMNSLRAEDTAVYYCVSYYYGIDFWGQGTSVTVSS
VL: DIQMTQSPSSLSASVGDRVTITCKASQDVTTAVAWYQQKPGKAPKLLIYWASTRHTGVPSRFSGSGSGTDFTLTISSLQPEDFATYYCQQHYTIPWTFGGGTKLEIKR
notes: CDRs of c1G4 grafted onto IGKV1-39*01 and IGHV3-11*04; also called HLX10; humanized h1G4
B2: referenced anti-PD-1 antibody (antibody, human IgG4 S228P, kappa, V domains shown)
VH: QVQLVESGGGVVQPGRSLRLDCKASGITFSNSGMHWVRQAPGKGLEWVAVIWYDGSKRYYADSVKGRFTISRDNSKNTLFLQMNSLRAEDTAVYYCATNDDYWGQGTLVTVSS
VL: EIVLTQSPATLSLSPGERATLSCRASQSVSSYLAWYQQKPGQAPRLLIYDASNRATGIPARFSGSGSGTDFTLTISSLEPEDFAVYYCQQSSNWPRTFGQGTKVEIKR
B3: chimeric anti-PD-1 antibody c1G4 (antibody, human IgG4 S228P, kappa, V domains shown)
VH: EVMLVESGGGLVKPGGSLKLSCAASGFTFSNYGMSWVRQTPEKSLEWVATISGGGSNIYYPDSVKGRFTISRDNAKNNLFLQMSGLRSEDTALYYCVSYYYGIDFWGQGTSVTVSS
VL: DIVMTQSHKFMSTSVGDRVSITCKASQDVTTAVAWYQQKPGQSPKLLIYWASTRHTGVPDRFTGSGSGTDYTLTINSVQAEDLALYYCQQHYTIPWTFGGGTKLEIKR
notes: also called chimeric c1G4

Legend:
[1] = molecular target: T1, PD-1-His (purified recombinant 6xHis-tagged PD-1_ECD) (UniProt Q15116 25-170); experiment: SPR, antibody captured on anti-human IgG Fc, PD-1-His analyte, 25 C, 1:1 Langmuir
T1 construct: extracellular domain
T1 sequence (Q15116 other isoform, or with tags, fused parts or gaps limits assumed): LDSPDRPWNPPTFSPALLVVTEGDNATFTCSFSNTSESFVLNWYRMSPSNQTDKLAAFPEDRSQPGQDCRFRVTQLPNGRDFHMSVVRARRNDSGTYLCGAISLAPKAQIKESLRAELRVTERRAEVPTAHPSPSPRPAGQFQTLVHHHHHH

[2] = molecular target: T1, PD-1-His (purified recombinant …); experiment: SPR, affinity improvement against the referenced anti-PD-1 antibody
[3] = molecular target: T2, PD-1 on activated human T cells; experiment: flow cytometry on PHA-activated human T cells, FITC-labeled anti-human IgG Fcγ, MFI
T2 construct: the sheet names no target
T2 sequence (chain, as listed by the source limits assumed): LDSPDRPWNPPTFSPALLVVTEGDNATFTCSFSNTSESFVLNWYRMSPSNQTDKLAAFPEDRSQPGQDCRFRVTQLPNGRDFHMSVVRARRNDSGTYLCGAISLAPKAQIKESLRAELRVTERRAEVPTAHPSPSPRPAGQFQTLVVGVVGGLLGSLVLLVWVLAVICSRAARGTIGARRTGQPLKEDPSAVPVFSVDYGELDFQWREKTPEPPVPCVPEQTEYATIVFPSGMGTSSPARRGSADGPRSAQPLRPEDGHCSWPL

Human PD-1 = molecular target: T3, Human PD-1 (human); experiment: ELISA on immobilized human PD-1/Fc (9 ng per well), peroxidase-labeled anti-human IgG F(ab)'2, OD450nm
T3 construct: PD-1 part of a purchased recombinant PD-1/Fc fusion protein; immobilized at 9 ng per well; also called recombinant human PD-1 fusion protein; PD-1/Fc (Sino Biological Inc.)
T3 sequence (Q15116 25-170): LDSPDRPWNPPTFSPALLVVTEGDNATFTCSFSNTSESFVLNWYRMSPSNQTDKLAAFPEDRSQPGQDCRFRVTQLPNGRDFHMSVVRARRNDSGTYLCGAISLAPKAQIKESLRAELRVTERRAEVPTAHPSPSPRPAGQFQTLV

Cynomolgus PD-1 = molecular target: T4, Cynomolgus PD-1 (cynomolgus monkey); experiment: ELISA on immobilized cynomolgus monkey PD-1/Fc (9 ng per well), peroxidase-labeled anti-human IgG F(ab)'2, OD450nm
T4 construct: PD-1 part of a purchased recombinant PD-1/Fc fusion protein; immobilized at 9 ng per well; also called recombinant cynomolgus monkey PD-1 fusion protein; PD-1/Fc (Sino Biological Inc.)

[4] = molecular target: T1, PD-1-His (purified recombinant …); experiment: SPR, full-length IgG, PD-1-His analyte (method of Example 3)
[5] = molecular target: T1, PD-1-His (purified recombinant …); experiment: SPR, affinity improvement against anti-PD-1 ref
[6] = molecular target: T1, PD-1-His (purified recombinant …); experiment: competition ELISA: PD-1-His (0.1 µg/ml) first bound to a plate coated with the referenced anti-PD-1 (4 µg/ml), antibody dilutions added afterwards; anti-His-HRP, OD450
[7] = molecular target: T1, PD-1-His (purified recombinant …); experiment: blocking ELISA: antibody dilutions mixed with PD-L1-AP, added to PD-1-His coated wells, OD405
[8] = molecular target: T1, PD-1-His (purified recombinant …); experiment: competition ELISA: antibody dilutions pre-mixed with PD-1-His (0.1 µg/ml), then added to a plate coated with the referenced anti-PD-1 (4 µg/ml); anti-His-HRP, OD450
[9] = molecular target: T1, PD-1-His (purified recombinant …); experiment: ELISA on PD-1-His, anti-human IgG Fc-HRP, OD450
[10] = molecular target: T5, recombinant human PD-1 at the cell surface (PD-1 transfected CHO-S cells) (human, UniProt Q15116 25-288); experiment: blocking flow cytometry: PD-1 expressing CHO-S cells incubated with antibody, washed, then biotin-labeled PD-L1-Fc and streptavidin-PE, MFI
T5 construct: whole, on cells; Also used as the target in the mixed leukocyte reaction rows, where it is human PD-1 on T cells; also called PD-1 expressing CHO-S cells; PD-1 expressed CHO-S cells
T5 sequence (Q15116 25-288): as the sequence (chain, as listed by the source limits assumed) above

Row | Binder | Kd [1] | koff [1] | kon [1] | Improvement [2] | EC50 (read off the curve) [3] | EC50 (read off the curve) (Human PD-1) | EC50 (read off the curve) (Cynomolgus PD-1) | Kd [4] | koff [4] | kon [4] | Improvement [5] | IC50 (read off the curve) [6] | IC50 (read off the curve) [7] | IC50 (read off the curve) [8] | EC50 (read off the curve) [9] | IC50 (read off the curve) [10]
1 | B1 | 0.265 nM | 7.98e-05 s⁻¹ | 310000 M⁻¹ s⁻¹ | 6.37 fold | ~0.1 µg/mL | ~0.03 µg/mL | ~0.04 µg/mL | 0.479 nM | 0.000216 s⁻¹ | 457000 M⁻¹ s⁻¹ | 6.66 fold | – | – | – | – | –
2 | B2 | – | – | – | – | – | ~0.02 µg/mL | ~0.03 µg/mL | – | – | – | – | – | – | – | – | –
3 | B3 | 0.434 nM | 0.000104 s⁻¹ | 244000 M⁻¹ s⁻¹ | 9.38 fold | – | – | – | 0.325 nM | 0.000177 s⁻¹ | 550000 M⁻¹ s⁻¹ | 4.07 fold | ~0.8 µg/mL | ~0.4 µg/mL | ~0.5 µg/mL | ~0.04 µg/mL | ~0.6 µg/mL
